Test results taken from US20160297854A1 (Novartis, published 2016).

Target: T1, human VEGF (human, UniProt P15692 207-395, biotinylated)
T1 construct: also called hVEGF; hVEGF-biotin
T1 sequence: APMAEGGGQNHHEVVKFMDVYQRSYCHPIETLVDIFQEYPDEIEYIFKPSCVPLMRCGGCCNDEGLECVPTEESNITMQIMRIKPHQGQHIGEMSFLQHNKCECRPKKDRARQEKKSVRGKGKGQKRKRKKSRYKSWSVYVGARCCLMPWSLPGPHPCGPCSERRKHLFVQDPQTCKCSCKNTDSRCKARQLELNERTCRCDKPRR
Test: SPR (Biacore), ligand hVEGF-biotin, 25 C

Kd: 5.64 pM
koff: 0.000172 s⁻¹
kon: 3.05e+07 M⁻¹ s⁻¹
B1: NVS1j (Fab)
heavy: EVQLVESGGGLVQPGGSLRLSCTASGFSLTDYYYMTWVRQAPGKGLEWVGFIDPDDDPYYATWAKGRFTISRDNSKNTLYLQMNSLRAEDTAVYYCAGGDHNSGWGLDIWGQGTLVTVSSASTKGPSVFPLAPSSKSTSGGTAALGCLVKDYFPEPVTVSWNSGALTSGVHTFPAVLQSSGLYSLSSVVTVPSSSLGTQTYICNVNHKPSNTKVDKRVEPKSCGS
light: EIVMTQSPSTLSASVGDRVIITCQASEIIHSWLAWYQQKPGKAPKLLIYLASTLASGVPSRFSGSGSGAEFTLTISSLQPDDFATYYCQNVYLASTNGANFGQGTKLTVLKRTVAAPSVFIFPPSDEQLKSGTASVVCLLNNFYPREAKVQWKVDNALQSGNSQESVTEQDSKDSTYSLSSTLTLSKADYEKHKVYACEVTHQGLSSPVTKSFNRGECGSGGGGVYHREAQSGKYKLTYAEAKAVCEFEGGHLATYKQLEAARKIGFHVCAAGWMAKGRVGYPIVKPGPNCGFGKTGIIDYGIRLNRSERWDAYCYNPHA
notes: Tag on the C-terminus of the light chain of NVS4; The heavy chain number is printed as '[9]215'
